The record followed here is the nanobody polyreactivity screen of Harvey et al. (2022).

The series can be described thus: yeast display, Sf9 membrane polyspecificity reagent, FACS + sequencing; frameworks hold sequencing errors. An outline of the steps:
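Nanobodies from a synthetic yeast display library (Saccharomyces cerevisiae BJ5465), induced 36–48 hours with galactose, were stained 1 hour at 4 °C with 10% biotinylated, detergent-solubilized Sf9 membrane reagent, enriched on streptavidin microbeads, then FACS-sorted. Anti-HA (expression) and streptavidin (reagent binding) fluorescence set low and high (top ~1%) gates. Polyreactivity labels come from the gate of origin. Genes were colony-PCR amplified, MiSeq 2 × 250 sequenced and filtered by CDR length.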
For “QVQLQGSGGGLVQAGVSLRLSCAASGYIFQNVPMGWNRHAPGKERELVAGIDNATSTNYADSVNGRFTISLDNAKNTVYLQMNSLKPEDTAVYYCAAAGQADNTLGYWGQGTQVTVSS”, the “polyreactivity (PSR sort gate)” value is recorded as “low polyreactivity”.

Regarding “QVQLVDSGGGLVQAGGSLRLSCAASGRTIVYYAMGWYRQAPGKERELVAAIRSGGSTNYADSVKGRFTISRDNAKNTVYLQMNSLKPEDTAVYYCNAVHYYYYKGDYWGQGTQVTVSS”, the “polyreactivity (PSR sort gate)” value was “high polyreactivity”.

For the sequence “QVQLVESGGGLVQAGGSLRLSWAASGSIFGLNALGWYRQAPGKERELVADITSGGGNTYSADSVKGRFTISRDNAKNTVYLQMNSLKPEDTAVYYCNADYDLYFSGWYDYWGQGTQVTVSS”, the “polyreactivity (PSR sort gate)” value is on record as “low polyreactivity”.

Turning to “QDQLVESGGGLVQAGGSLRLSCAASGGTFGGYAMGWYRQAPGKERELVAAITYSGGSTYYADSVKGRFTISRDNAKNTVYLQMNSLKPEDTAVYYCAQYHYRYYYWGQGTQVTVSS”, the “polyreactivity (PSR sort gate)” value is on record as “high polyreactivity”.

As for “QVQLVESGGGLVQAGGSHRLSCAASGRIFALNTMRWYRQAPGKEREFVAAITTSGGSTYADSVKGRFTISRDNAKNTVYLQMNSLKPEDTAVYYCNKEYYHKWAPTYDYWGQGTEVTVSS”, the “polyreactivity (PSR sort gate)” value is on record as “low polyreactivity”.

Take “QVQLVESGGGLVKAGGSLRLSCAATGRIFTYMGWYRQARGKERELVAGISWRGTSTYYADSVKGRFTISRDNAKNSVYLQMNSLKPEDTAVYYCAARWAYHVRGDYWGQGTQVTVSS”: the “polyreactivity (PSR sort gate)” value was “low polyreactivity”.

In the case of “QVQLVESGGGLVQAGGILRLSCAASGRILPSNAMGWYRQAPGKERELVAGITSGGSTDYADSVKGRFTISRDNAKNTVYLQMNSLKQEDTAVYYCNKPFPYYPDGPNGYDYWGLGTQVTVSS”, the “polyreactivity (PSR sort gate)” value is reported as “low polyreactivity”.

Take “QVQLVESGGGLVQAGGSLRLSCAASGYIFLGNAMGWYRQAPGKERELVAAISRSGGSTYYADSVKGRFTISRDNAKNTVYLQMNSLKPEATAVYYCAAGTRIYNSWIRFDYWGQGTQVTVSS”: the “polyreactivity (PSR sort gate)” value is given as “high polyreactivity”.

As for “QVQLVESGGGLVQAGGSLRLSCAASGSTIPLYAMGWYRQAPGKERELVAAISRRGGRTYYADSVKGRFTISRDNAKNSVYLQMNSLKPEDTGVYYCAARYTRRHYDYWGQGTKVTVSS”, the “polyreactivity (PSR sort gate)” value is on record as “high polyreactivity”.

Turning to “QVQLVESGGGLVQAGGSLRLSCAASGFTLFTNAMGWYRQAPGKERELLARISLGGSTKYADSVKGRFTISRDNAKNTVYVQMNSLKPEDTAVYYCATGYYGYRYGYWGQATQVTVSS”, the “polyreactivity (PSR sort gate)” value is given as “high polyreactivity”.

For the sequence “QVQLVESGGGLVQAGGSLRLSCAASGITFYPYAMGWYRQAPGKERELVAAISWRSGSTNYADSVKGRFTISRDNAKNTVYLQMNSLKPEDTAVYYCNFDKVTSWYYYGYWGQGTQVTVSS”, the “polyreactivity (PSR sort gate)” value is recorded as “low polyreactivity”.

Take “KVQLVESGGGLVQAGGSLRLSCAASGSTFFDNAKGWYRQAPGKERELVDAISWSGGSTYYADSVKGRFTISRDNAKNTVYFQMNSLKPEDTAVYYCAADWGHGTQVTVSS”: the “polyreactivity (PSR sort gate)” value was “low polyreactivity”.

Consider “QVQIVESGGGLVQAGGSLRLSWAASGSNLDFNAMGWYRQAHGKERELVAAINNSGGSTYYADSLKGRFTISRDTAKKTVYLQMNRLKPEDTAVYYCARYAFWKRAYWGQGTQETVSS”, for which the “polyreactivity (PSR sort gate)” value is reported as “low polyreactivity”.

As to “HVQQQESGGGLVQAGGSLRLSCAASGNISYSRNMGWYRQAPGKERELVAAIDRGAITYYADSVQGRFTISRDNAKNTVYLQIYSLKPEDTAVYYCAAEYHDRWDHRYWGQGTQVTVSS”, the “polyreactivity (PSR sort gate)” value is “high polyreactivity”.

Consider “QVQLVETGGGLVQAGGSLRLSCAASGITLYFYAMGWSRQAPGKEREMVAGISGSVGSTHYADSVKGRFTISRDNAKNTVYSQMNSLKPEDTAVYYCDAAQVGYYVASVTYGYWGQGTQVTVSS”, for which the “polyreactivity (PSR sort gate)” value is recorded as “high polyreactivity”.

With “QVQLVESGGGLVQAGGSLRLSCAASGGTFQDYGMGWYRQAPGTERELVAAITWSGGSTYYADSVKGRFTISRDNAKNTVYLQMNSLKPEDTAVYYCAAVYADVYLYLTAYDYWGQGTQVTVSS”, the “polyreactivity (PSR sort gate)” value is on record as “low polyreactivity”.

“QVQLVESGGGLVQAGGSLRLSCAASGYIFSYYAMGWYRQAPGKEREFVAAIRWRGGSTYYADSVKGRFTISRDYAKNTVYLQMNSLKPEDTEVYYCAAGPATSYYWGQGTQVTVSS”: the “polyreactivity (PSR sort gate)” value is given as “high polyreactivity”.

For “QVQLVESGGGLVQAGGSLRLSCAASGGIFGYYAMGWYRQAPGKERELVAAITLSGGRTYYADSVKGRFTISRDNAKNTVYLQMNSLKPEDTAVYYCAAKGTRRGKERNYWGQGTQVTVSS”, the “polyreactivity (PSR sort gate)” value is “high polyreactivity”.

Consider “QVQLVDSGGGLVQAGGSLRLSCAASGRTLAGYVMGWYRQAPGKERELVATISNGGSTYYADSVKGRFTISRDNAKNTVYLQMNSLKPEDTAVYYCNRYWYRKHSTDPPVRYRPVGYWGQGTQVTVSS”, for which the “polyreactivity (PSR sort gate)” value was “high polyreactivity”.

For the sequence “QVQLVESGGGLVQAGGSLRLSCAASGRTFRGYAMGWYRQAPGKERELVAAINFSAGITYYADSVKGRFTISRDNAKNTVYLQMNSLKPEDTAVYYCAAEPEWWWRGYGYWGQGTLVTVSS”, the “polyreactivity (PSR sort gate)” value is recorded as “low polyreactivity”.

Turning to “QVQLVESGGGLVQAGGSLRLSCAASGSTFPTYAMGWYRQAPGKESELVAAISFSGARTYYADSVKGRFTISRDNAKNTVYLQMNSLKPEDTAVYYCAKDSSYSRRYEYWGQGTQVTVSS”, the “polyreactivity (PSR sort gate)” value is reported as “high polyreactivity”.

On to “QVQLVESGGGLVQAGVSLRLSCAASGLTFGNYAMGWYRQAPGKERELVAAISKRGGTTYYADSVKARFTISRDNAKNTVYLQMNSLKPEDTAVYYCSARDYSHPTDDNYWGQGTQVTVSS”, for which the “polyreactivity (PSR sort gate)” value is given as “high polyreactivity”.

In the case of “QVQLVESGGGLVQAGGSLRLSCAASGSIFVAYTMGWYRQAPGKERELVAAISRGGSTNYADSVKGRFTISRDNAKNTVDLQMNSLKPEDTAVYYCAAKVWDGQLLYYWGQGTQVTVSS”, the “polyreactivity (PSR sort gate)” value is reported as “low polyreactivity”.

As to “QVQLVESGGGLVQAGGSLRLSCAASGLILKYYAMGWYRQAPGKEREFVAAITRRGGITYYADSVKGRFTISRDNAKNTVYLQMNSLKPEDTAVYYCAADPKLGSLAYWRYSYPLYDYWGQGTQVTVSS”, the “polyreactivity (PSR sort gate)” value is given as “low polyreactivity”.

As to “QVQLVESGGGLVQAGGSLRLSCAASGSTYRYNAMGWYRQAPGKERELVAAITSGGRTNYADSVKGRFTISRDNAKITVYLQMNSLKPEDTAVYYCAARRYGRNWHYDYWGQGTQVTVSS”, the “polyreactivity (PSR sort gate)” value is “high polyreactivity”.

Turning to “QVQLVESGGGLVQAGGSLRLSCAASGDITYIYAMGWYRQAPGKERELVADISSSVGNTYYADSVKGRFTISRDNAKNTVYLQMNSLKPEDTAVYYCNADYVQPTESGGTYDYWGQGTQVTVSS”, the “polyreactivity (PSR sort gate)” value was “low polyreactivity”.

“QVQLVESGGGLVQAGGSLRLSCAASGSIFRRNAMGWYRQAPGKARELVATITSSGGSTYYADSVKGRFTISRDNAKNTVYLQMNSLKPEDTAVYDCATDGQSPYYIYYWGQGTQVTVSS”: the “polyreactivity (PSR sort gate)” value is listed as “low polyreactivity”.

As for “QVQLVESGGGLVQAGGSLRLSCAASGFTFGYYAMGWYRQAPGKERELVAAINYSGGSTYYADSVKGRFTISRDNEKNTVYLQMNSLKPEDTAVYYCAAAVLRTYVPDLYDYWGQGTQVTVSS”, the “polyreactivity (PSR sort gate)” value was “high polyreactivity”.

Regarding “QVQLVESGGGLVQAGGSLRLSCAASGSIYYQYAMGWYRQAPGKERELVAAITYGGGSTYYADSVKGRFTISRDNAKNTVYLQMISLKPEDTAVYYCAKDLYHTVGRYDYWGQGTQVTVSS”, the “polyreactivity (PSR sort gate)” value was “low polyreactivity”.

On to “QVQLVESGGGLVQAGGSLRLSCAASGLTFYSNAMGWYRQAPGKERELVARISTGGSTYADSEKGRFTISRDNAKNTVYLQMNSLKPEDTSFFYCAKLPPRGIDDEYWGQGTQVTVSS”, for which the “polyreactivity (PSR sort gate)” value is given as “low polyreactivity”.

Consider “QVQLVESGGGLVQAGGSLRLSCAASGNIFDRYVMGWYRQAPVKERELVAAISVSGGSTYYADSVKGRFTISRDNEKNSVYLQMNCLKPEDTAVYYCAAHSRLINWYDYWGQGTQVTVSS”, for which the “polyreactivity (PSR sort gate)” value is “high polyreactivity”.

Regarding “QVQLVESGGGLVQAGGSLRLSCAASGFTFPAYVMRWYRQAPGKERELVAAISKSGGSTYYADSVKGRFTISRDNAKNTVYLQMNCLKPEDTAVYYCAKYWVTRRFQYDYWGQGTQVTVSS”, the “polyreactivity (PSR sort gate)” value is “high polyreactivity”.

Consider “QVQLVESGGGLVQAGGSLRLSCAASGRTFDVYAMGWYRQAPGKERELVAAISSSGGSTYYADSVKGRFTISRDNAKNTVYLQMNSLKPEDTAVYYCAVYYYSVYQYQAMDYWGQGTQVTVSS”, for which the “polyreactivity (PSR sort gate)” value is “low polyreactivity”.

With “QVQLVESGGGLVQAGGSLRLSCAASGFTFTQYGMGWYRQAPGKEREFVATIRFSGDNTYYADSVKGRFTISRDNAKNTVYLQMNSLKPEDTAVYYCNADNRAFFVYPVSKRYDSWGQGTQVTVSS”, the “polyreactivity (PSR sort gate)” value is “low polyreactivity”.

With “QVQIVESGGGLVQAGGSLRLSCAASGRTTSTNAMGWYRQAPGKERELVASISWRGGSTYYADSVKGRFTISRDNAKNTVYLEMNCLKPEDTAVYYCAASWPRWWRFGYWGQGTQVTVSS”, the “polyreactivity (PSR sort gate)” value was “low polyreactivity”.

“QVQLVESGGGLVQAGGSLRLSCAASGRTFVTYAMGWYRQAPGQERELVAAISASGGSTYYADSVKGRFTISRDNAKNTVYLQMNSLKPEDTAVYYCAKTYFLATPYGYWGQGTQVTVSS”: the “polyreactivity (PSR sort gate)” value is on record as “low polyreactivity”.

Turning to “QVQLVESGGGLGQAGGSLRLSCAASGFIFGLNAMGWYRQAPGKERELVAAISSIGGSTYYADSVKGRFTISRDNAMNTVYLQMNSLIPEDTAVYYCAKRYGGRRSWYDYWGQGSQVTVSS”, the “polyreactivity (PSR sort gate)” value is “high polyreactivity”.

Regarding “QVQLVESGGGLVQAGGSLRLSCAASGFTFGWYAMGWYRQAPGKDWEFVAAISRSGGSTYYADSVKGRFTISRDNAKNTVYLQMNSLKPEDTAVYYCAAYIIGDTHAEYDYWGQGTQVTVSS”, the “polyreactivity (PSR sort gate)” value is “high polyreactivity”.

In the case of “QVQLVESGGGLVQAGGSLRLSCAASGFIFSLYAMGWYRQAPGKERELVAAISKRGGSTNYADSVKGRFTISRDNAKNNVYLQMNSLKPEDTAVYYCAKARPGFLYDHWGQGTQVTVSS”, the “polyreactivity (PSR sort gate)” value was “high polyreactivity”.

In the case of “QVQLVESGGGLVQAGGSLRLSCAASGRIFWYNAMGWYRQAPGKERELVAVITSGTSTYYADSVKGRFTISRDNAKNTVYVHMNSLKPDDTAVYYCAARYLSRYSERHYYDWGQGTQVTVSS”, the “polyreactivity (PSR sort gate)” value is given as “high polyreactivity”.

As to “QVQLVESGGGLVQAGGSLRLSCAASGYTFQSYAMAWYRQAPWKERELVAAIRYSGGSTYADSVKGRFTISRDNAKNTVYLQMNSLKPEDTAVYYCAARSNSLLFDYWGQGTQVTVSS”, the “polyreactivity (PSR sort gate)” value is “low polyreactivity”.
